In patent US20210324374, “COMPOSITIONS AND METHODS FOR SCREENING APTAMERS” (Chan Zuckerberg Biohub, Inc., published 2021):

Molecular target: VEGF (vascular endothelial growth factor) (UniProt P15692-4 P15692-4:27-191)
Test: N2A2 flow-cell fluorescence, natural DNA
Conditions: tags: Dylight 650 NHS labelled; R&D Systems; chain copies: 2
Text: We used N2A2 to measure the VEGF binding affinity of all sequences in these pools simultaneously. We performed three separate experiments: 1) VEGF binding to the natural DNA pools, 2) VEGF binding to non-natural DNA modified with tryptophan, and 3) VEGF binding to non-natural DNA modified with tyrosine. In addition to the six aptamer pools described above (R0-R5), we included three other DNA sequences on the flow cell for each experiment: (1) a known “fiducial mark” sequence with a fluorescently-labeled complement for intensity calibration, (2) a “positive control” sequence based on a published aptamer known to bind to VEGF, and (3) a “negative control” sequence known not to bind to VEGF. The same input DNA stocks and labeled VEGF protein were used for all three experiments, but new sequencing cartridges and flow cells were used for each separate experiment. Other details of experimental setup of the sequencing cartridge, protein titrations, and software and hardware modifications have previously been described in the provided grant document and manuscript. VEGF protein was labeled with Dylight647 fluorophore to enable imaging on the N2A2.

Sequence of VEGF (vascular endothelial growth factor) (P15692 other isoform, or with tags, fused parts or gaps): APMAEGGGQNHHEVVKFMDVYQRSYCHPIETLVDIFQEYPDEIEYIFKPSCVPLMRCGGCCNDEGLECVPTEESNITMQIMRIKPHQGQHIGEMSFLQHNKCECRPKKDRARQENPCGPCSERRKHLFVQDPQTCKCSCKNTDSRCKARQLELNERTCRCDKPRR

B1: K SL2-B positive control (ssDNA)
DNA: AGCAGCACAGAGGTCAGATGAATTGGGCCCGTCCGTATGGTGGGTCCTATGCGTGCTACCGTGAA
- binding result: binds
